Source: patent US20200325237A1 (AVIDITY BIOSCIENCES, published 2020)
Positions count from the first letter of the chain named. Like-named read-outs stand apart in the source and are kept apart here.

Key:
[1] = target: T1, TfR2 (transferrin receptor 2) (UniProt Q9UP52 105-801, limits assumed); experiment: A450 plate assay on TfR2 (method not described in the text)
T1 sequence (looked up): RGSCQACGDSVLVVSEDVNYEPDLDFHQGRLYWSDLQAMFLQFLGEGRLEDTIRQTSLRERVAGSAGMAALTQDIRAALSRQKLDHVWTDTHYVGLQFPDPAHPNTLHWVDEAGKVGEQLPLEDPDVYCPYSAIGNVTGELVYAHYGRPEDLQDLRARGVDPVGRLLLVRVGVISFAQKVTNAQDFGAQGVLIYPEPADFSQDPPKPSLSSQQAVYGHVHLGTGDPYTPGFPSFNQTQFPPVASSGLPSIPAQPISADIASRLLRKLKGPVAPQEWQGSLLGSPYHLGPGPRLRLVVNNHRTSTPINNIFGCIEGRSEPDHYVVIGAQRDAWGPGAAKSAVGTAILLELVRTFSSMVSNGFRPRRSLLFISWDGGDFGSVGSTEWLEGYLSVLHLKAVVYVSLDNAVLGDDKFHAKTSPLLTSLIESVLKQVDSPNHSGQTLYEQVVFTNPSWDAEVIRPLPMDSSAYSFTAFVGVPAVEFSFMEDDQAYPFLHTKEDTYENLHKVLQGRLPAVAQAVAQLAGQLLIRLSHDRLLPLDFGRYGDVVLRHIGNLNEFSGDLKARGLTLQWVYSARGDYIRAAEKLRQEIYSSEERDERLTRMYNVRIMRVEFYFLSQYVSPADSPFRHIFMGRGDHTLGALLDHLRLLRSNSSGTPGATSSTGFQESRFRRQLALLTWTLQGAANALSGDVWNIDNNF

[2] = target: T2, hTfR (human transferrin receptor, source and construct not stated) (human, UniProt P02786 89-760, limits assumed); experiment: SPR (BioRad ProteOn XPR36), mAb captured on Protein A, hTfR as analyte, 25 C
Experimental: The binding kinetics of nine exemplary humanized anti-TfR antibodies and the parent chimeric antibody were characterized. Studies were run on a BioRad ProteOn XPR36 optical biosensor using a GLM sensor chip coated with Protein A for mAb capture. Running buffer included 10 mM EPES, 150 mM NaCl, pH 7.4 with 0.05 tween-20 with 0.2 mg/ml BSA. Data were collected at 25 degrees C. All mAbs were diluted into running buffer to 2 ug/ml based on the stock concentration provided. Each was then captured for 40 seconds over a Protein A surface.
hTfR (100 ug) was dissolved into […] of water to yield a 4.3 uM stock concentration. hTfR was dilted to 43 nM as the highest concentration and tested in a 3 fold dilution series. hTfR was injected at 200 ul/min for 2 minutes followed by a one-hour dissociation phase.

[3] = target: T2, hTfR (human transferrin receptor, …); experiment: ELISA; ratio of the Kd on HFE-captured hTfR to the Kd on directly coated hTfR
[4] = target: T2, hTfR (human transferrin receptor, …); experiment: ELISA; ratio of the Kd on transferrin-captured hTfR to the Kd on directly coated hTfR
Experimental: (§1) Antibodies were biotinylated using 50 fold molar excess of EZ-Link No weigh NHS-Biotin (Thermo Scientific A39256) following manufacturer's instructions. Half-well high-bind plates (Costar #3690) were coated with 500 ng/mL purified human holo-transferrin (R&D Systems 2914-HT) in PBS at 4° C. overnight. For comparison, plates were coated directly with hTfR. Plates were washed four times with 100 μL of Tris buffered saline+Tween (20×TBST, Cell Signaling 9997S). 100 μL of Superblock (ThermoFisher PI-37535) was added to each well and incubated for 1 hour at room temperature. The wash step was repeated before the addition of the hTfR (200 ng/mL in 25 μl) to the transferrin plates, or Superblock to the hTfR plates, and incubated for 30 minutes. Biotinylated antibodies were diluted to 20 nM for the high concentration and added to the plates with 3-fold serial dilution. 25 μl/well was added to the 25 μl already in the plate. Plates were incubated for 1 hour, and wash step was repeated. Streptavidin-HRP (R&D Systems DY998) was added following recommended dilution on the package insert, and a final wash step was done. Binding was measured by the addition of 50 μL of 1-Step™ Ultra TMB-ELISA (ThermoFisher, 34028), incubated for 5 minutes, and the reaction was stopped with the addition of 25 μL of Stop Solution 2N sulfuric Acid (R&D Systems DY994). Absorbance was measured at 450 nm, with reference wavelength 570 nm subtracted. Binding constants were determined using GraphPad Prism Specific Binding with Hill Slope. Change in antibody binding constants in the presence versus absense of transferrin is considered relative to the commercially available antibody which is known to have an overlapping epitope with transferrin (AF2474, R&D Systems).

[5] = target: T3, recombinant cyno transferrin receptor protein (Sino Biological 90253-C07H) (cyno, UniProt H9EXL1 89-760 (rhesus entry)); experiment: ELISA on plate-coated recombinant cyno TfR1 (CD71); fit: specific binding with Hill slope
T3 construct: Bought protein coated on ELISA plates; also called recombinant cyno TfR1; cynoTfR1
Experimental: (§2) Half-well high-binding 96-well plates (Costar #3690) were coated with recombinant human transferrin receptor protein (Sino Biological 11020-H07H) or recombinant cyno transferrin receptor protein (Sino Biological 90253-C07H) at 1 ng/μL in PBS (Gibco 14190) and incubated overnight at 4° C. Plates were washed four times with 100 μL of Tris buffered saline+Tween (20×TBST, Cell Signaling 9997S). 100 μL of Superblock (ThermoFisher PI-37535) was added to each well and incubated for 1 hour at room temperature. The wash step was repeated before the addition of the samples. Samples were added at concentrations up to 10 nM, 50 μL/well. Plates were incubated for another hour at room temp and wash step repeated. Secondary antibody (Peroxidase AffiniPure Goat Anti-Human IgG, Fcγ Fragment Specific, Jackson Immunoresearch, 109-035-098) was diluted 1:5000 in Superblock and 50 μL/well added. Plates were incubated for 1 hour at room temperature and washed one more time. Binding was measured by the addition of 50 μL of 1-Step™ Ultra TMB-ELISA (ThermoFisher, 34028), incubated for 5 minutes, and the reaction was stopped with the addition of 25 μL of Stop Solution 2N sulfuric Acid (R&D Systems DY994). Absorbance was measured at 450 nm, with reference wavelength 570 nm subtracted. Binding constants were determined using GraphPad Prism Specific Binding with Hill Slope.

[6] = target: T2, hTfR (human transferrin receptor, …); experiment: ELISA, biotinylated antibody on hTfR captured by plate-coated HFE (HFE+TfR); fit: specific binding with Hill slope
[7] = target: T2, hTfR (human transferrin receptor, …); experiment: ELISA, biotinylated antibody on hTfR captured by plate-coated human holo-transferrin (Tf+TfR); fit: specific binding with Hill slope
Experimental: as §1

[8] = target: T4, recombinant human transferrin receptor protein (Sino Biological 11020-H07H) (human, UniProt P02786 89-760); experiment: ELISA on plate-coated recombinant human TfR1 (CD71); fit: specific binding with Hill slope (row labels blank in the lower block; row taken by the order Bmax, h, Kd)
T4 construct: Bought protein coated on ELISA plates; also called recombinant human TfR1; human TfR1
Experimental: as §2

[9] = target: T4, recombinant human transferrin receptor …; experiment: ELISA on plate-coated recombinant human TfR1; fit: specific binding with Hill slope
Experimental: as §2, with “100” for “Half-well high-binding 96-well plates (Costar #3690) were coated with recombinant human transferrin receptor protein (Sino Biological 11020-H07H) or recombinant cyno transferrin receptor protein (Sino Biological 90253-C07H) at 1 ng/μL in PBS (Gibco 14190) and incubated overnight at 4° C. Plates were washed four times with 100 μL of Tris buffered saline+Tween (20×TBST, Cell Signaling 9997S). 100”
(§3) Half-well high-binding 96-well plates (Costar #3690) were coated with recombinant human transferrin receptor protein (Sino Biological 11020-H07H) or recombinant cyno transferrin receptor protein (Sino Biological 90253-C07H) at 1 ng/μL in PBS (Gibco 14190) and incubated overnight at 4° C. […] Absorbance was measured at 450 nm, with reference wavelength 570 nm subtracted. […]

[10] = target: T3, recombinant cyno transferrin receptor …; experiment: ELISA on plate-coated recombinant cyno TfR1 (CD71); fit: specific binding with Hill slope; remark: listed apart in the source
Experimental: as §2, with “100” for “Half-well high-binding 96-well plates (Costar #3690) were coated with recombinant human transferrin receptor protein (Sino Biological 11020-H07H) or recombinant cyno transferrin receptor protein (Sino Biological 90253-C07H) at 1 ng/μL in PBS (Gibco 14190) and incubated overnight at 4° C. Plates were washed four times with 100 μL of Tris buffered saline+Tween (20×TBST, Cell Signaling 9997S). 100”
as §3

T2 sequence (P02786 89-760 limits assumed): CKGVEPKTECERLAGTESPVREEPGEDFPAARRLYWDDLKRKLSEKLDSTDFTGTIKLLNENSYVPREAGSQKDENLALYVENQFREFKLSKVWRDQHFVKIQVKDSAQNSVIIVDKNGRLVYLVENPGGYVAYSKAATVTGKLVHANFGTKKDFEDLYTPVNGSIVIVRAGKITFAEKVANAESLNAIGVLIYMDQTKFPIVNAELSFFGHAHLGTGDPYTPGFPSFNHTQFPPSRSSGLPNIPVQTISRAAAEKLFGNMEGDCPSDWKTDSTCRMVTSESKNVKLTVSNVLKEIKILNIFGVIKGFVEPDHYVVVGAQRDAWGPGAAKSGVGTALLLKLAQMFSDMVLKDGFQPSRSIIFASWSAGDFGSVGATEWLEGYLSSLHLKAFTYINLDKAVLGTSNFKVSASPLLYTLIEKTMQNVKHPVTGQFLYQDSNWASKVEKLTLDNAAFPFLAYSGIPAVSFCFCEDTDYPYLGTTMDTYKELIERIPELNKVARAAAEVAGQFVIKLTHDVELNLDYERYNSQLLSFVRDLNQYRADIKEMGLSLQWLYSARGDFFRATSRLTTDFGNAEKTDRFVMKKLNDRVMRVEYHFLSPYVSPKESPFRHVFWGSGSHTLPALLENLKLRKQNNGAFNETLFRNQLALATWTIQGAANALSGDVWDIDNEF
T4 sequence (P02786 89-760 limits assumed): as above
T3 sequence (chain, as listed by the source C07H C07H): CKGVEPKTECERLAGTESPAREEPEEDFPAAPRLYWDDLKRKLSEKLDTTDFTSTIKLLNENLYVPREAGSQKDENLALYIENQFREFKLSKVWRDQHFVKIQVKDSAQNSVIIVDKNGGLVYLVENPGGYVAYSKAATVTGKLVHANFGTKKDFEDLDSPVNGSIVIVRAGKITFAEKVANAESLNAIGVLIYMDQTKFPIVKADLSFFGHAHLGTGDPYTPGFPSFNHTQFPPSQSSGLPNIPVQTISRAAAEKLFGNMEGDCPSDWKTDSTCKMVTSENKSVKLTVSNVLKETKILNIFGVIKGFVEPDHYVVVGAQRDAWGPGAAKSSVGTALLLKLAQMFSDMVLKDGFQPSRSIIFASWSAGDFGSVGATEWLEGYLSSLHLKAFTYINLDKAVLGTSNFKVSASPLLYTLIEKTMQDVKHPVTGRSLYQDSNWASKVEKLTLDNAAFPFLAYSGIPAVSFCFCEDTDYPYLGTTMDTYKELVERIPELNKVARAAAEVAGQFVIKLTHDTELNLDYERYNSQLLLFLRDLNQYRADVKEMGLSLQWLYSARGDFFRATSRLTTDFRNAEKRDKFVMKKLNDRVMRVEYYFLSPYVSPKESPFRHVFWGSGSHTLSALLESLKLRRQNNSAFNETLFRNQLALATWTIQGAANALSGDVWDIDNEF

B1: 13E4-Variant 9iii (antibody, human IgG1, kappa, L234A L235A)
heavy: QVQLVQSGAEVKKPGASVKVSCKASGYTFTNYWMHWVRQAPGQGLEWMGEINPINGRSNYAQKFQGRVTLTVDTSISTAYMELSRLRSDDTAVYYCARGTRAMHYWGQGTLVTVSSASTKGPSVFPLAPSSKSTSGGTAALGCLVKDYFPEPVTVSWNSGALTSGVHTFPAVLQSSGLYSLSSVVTVPSSSLGTQTYICNVNHKPSNTKVDKRVEPKSCDKTHTCPPCPAPEAAGGPSVFLFPPKPKDTLMISRTPEVTCVVVDVSHEDPEVKFNWYVDGVEVHNAKTKPREEQYNSTYRVVSVLTVLHQDWLNGKEYKCKVSNKARPAPIEKTISKAKGQPREPQVYTLPPSREEMTKNQVSLTCLVKGFYPSDIAVEWESNGQPENNYKTTPPVLDSDGSFFLYSKLTVDKSRWQQGNVFSCSVMHEALHNHYTQKSLSLSPG
light: DIQMTQSPSSLSASVGDRVTITCRTSENIYNNLAWYQQKPGKAPKLLIYAATNLAEGVPSRFSGSGSGTDYTLTISSLQPEDFATYYCQHFWGTPLTFGGGTKVEIKRTVAAPSVFIFPPSDEQLKSGTASVVCLLNNFYPREAKVQWKVDNALQSGNSQESVTEQDSKDSTYSLSSTLTLSKADYEKHKVYACEVTHQGLSSPVTKSFNRGEC
notes: Humanized hIgG1 with Fc mutations; also called hIgG1 TfR-Var9iii
With B1 the binding result [1] was “no binding (tested: 1000 nM)”, the Kd [2] was 0.00527 nM and the koff [2] was 4.17e-06 s⁻¹. For the same binder, the kon [2] was 791000 M⁻¹ s⁻¹, the “Kd(HFE+TfR)/Kd(TfR)” value [3] was 11.4 and the “Kd(Tf+TfR)/Kd(TfR)” value [4] was 2.5. It also gave a Bmax [5] of 94 % max binding, a Kd [5] of 0.0137 nM and a h [5] of 1.74. It also gave a Bmax [6] of 3.14 A450, a Kd [6] of 0.248 nM and a h [6] of 1.38. The Bmax [7] was 3.53 A450, the Kd [7] was 0.0546 nM and the h [7] was 1.49. It also gave a Bmax [8] of 93.8 % max binding, a Kd [8] of 0.012 nM and a h [8] of 1.56.

B2: 13E4-Variant 15i (antibody, human IgG1, kappa, L234A L235A)
heavy: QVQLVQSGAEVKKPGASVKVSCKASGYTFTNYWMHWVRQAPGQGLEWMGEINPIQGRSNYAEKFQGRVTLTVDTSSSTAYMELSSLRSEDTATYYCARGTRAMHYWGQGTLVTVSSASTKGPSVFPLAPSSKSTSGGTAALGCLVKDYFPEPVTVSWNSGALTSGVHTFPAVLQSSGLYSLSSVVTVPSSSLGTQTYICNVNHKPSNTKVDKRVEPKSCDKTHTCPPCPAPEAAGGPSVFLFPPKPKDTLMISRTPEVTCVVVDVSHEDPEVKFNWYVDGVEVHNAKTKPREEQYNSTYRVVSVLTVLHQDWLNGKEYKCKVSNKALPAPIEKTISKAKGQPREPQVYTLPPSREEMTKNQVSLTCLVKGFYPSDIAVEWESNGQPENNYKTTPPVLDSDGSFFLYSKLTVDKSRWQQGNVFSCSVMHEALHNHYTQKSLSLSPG
light: B1 light with N31S, A51G, E56D, T85N
notes: Humanized hIgG1 with Fc mutations; also called hIgG1 TfR-Var15i
B2 was tested, and the binding result [1] was “no binding (tested: 1000 nM)”, the Kd [2] was 0.00851 nM and the koff [2] was 6.13e-06 s⁻¹. The kon [2] was 720000 M⁻¹ s⁻¹, the “Kd(HFE+TfR)/Kd(TfR)” value [3] was 8.5 and the “Kd(Tf+TfR)/Kd(TfR)” value [4] was 2.9. The Bmax [5] was 94.2 % max binding, the Kd [5] was 0.0125 nM and the h [5] was 1.55. For the same binder, the Bmax [6] was 2.7 A450, the Kd [6] was 0.182 nM and the h [6] was 1.65. It also gave a Bmax [7] of 3.47 A450, a Kd [7] of 0.0619 nM and a h [7] of 1.56. The Bmax [8] was 95.3 % max binding, the Kd [8] was 0.00713 nM and the h [8] was 1.29.

B3: 13E4-Variant 15ii (antibody, human IgG1, kappa, L234A L235A)
heavy: B1 heavy with N55Q, Q62E, I76S, R85S, D89E, V93T, K321G, R327L
light: B1 light with N31S, A51G, E56D, T85N
notes: Humanized hIgG1 with Fc mutations; also called hIgG1 TfR-Var15ii
B3 was tested, and the binding result [1] was “no binding (tested: 1000 nM)”, the Kd [2] was 0.0131 nM and the koff [2] was 9.14e-06 s⁻¹. For the same binder, the kon [2] was 697000 M⁻¹ s⁻¹, the “Kd(HFE+TfR)/Kd(TfR)” value [3] was 10.2 and the “Kd(Tf+TfR)/Kd(TfR)” value [4] was 2.5. It also gave a Bmax [5] of 94.4 % max binding, a Kd [5] of 0.018 nM and a h [5] of 1.53. It also gave a Bmax [6] of 2.79 A450, a Kd [6] of 0.346 nM and a h [6] of 1.28. For the same binder, the Bmax [7] was 3.52 A450, the Kd [7] was 0.0849 nM and the h [7] was 1.46. For the same binder, the Bmax [8] was 93.7 % max binding, the Kd [8] was 0.00987 nM and the h [8] was 1.25.

B4: hTfR1.IgG2 mAb-SSB siRNA conjugate (DAR1) (antibody, DAR 1, V domains shown)
VH: QVQLQQPGAELVKPGASVKLSCKASGYTFTNYWMHWVKQRPGQGLEWIGEINPINGRSNYGERFKTKATLTVDKSSSTAYMQLSSLTSEDSAVYYCARGTRAMHYWGQGTSVTVSS
VL: DIQMTQSPASLSVSVGETVTITCRTSENIYNNLAWYQQKQGKSPQLLVYAATNLADGVPSRFSGSGSGTQYSLKINSLQSEDFGNYYCQHFWGTPLTFGAGTKLELKR
modifications: SSB siRNA duplex joined through a bis-maleimide (BisMal) linker to TCEP-reduced cysteines, DAR1; chain and positions not stated; remaining free cysteines capped with N-ethylmaleimide
notes: also called TfR-SSB DAR 1; conjugated hTfRL.IgG2 mAb
B4 gave a Kd [9] of 0.00318 nM and a Kd [10] of 0.00499 nM.
